{"source": "paper PMC5966032", "about": "(Nature, 2018)", "molecular_target": "the molecule itself", "experiment": "crystal structure"}
{"protein": "Δ25 construct of chicken ASIC1a (domain or fragment, UniProt Q1XA76 25-463, looked up) SSTLHGISHIFSYERLSLKRVVWALCFMGSLALLALVCTNRIQYYFLYPHVTKLDEVAATRLTFPAVTFCNLNEFRFSRVTKNDLYHAGELLALLNNRYEIPDTQTADEKQLEILQDKANFRNFKPKPFNMLEFYDRAGHDIREMLLSCFFRGEQCSPEDFKVVFTRYGKCYTFNAGQDGKPRLITMKGGTGNGLEIMLDIQQDEYLPVWGETDETSFEAGIKVQIHSQDEPPLIDQLGFGVAPGFQTFVSCQEQRLIYLPPPWGDCKATTGDSEFYDTYSITACRIDCETRYLVENCNCRMVHMPGDAPYCTPEQYKECADPALDFLVEKDNEYCVCEMPCNVTRYGKELSMVKIPSKASAKYLAKKYNKSEQYIGENILVLDIFFEALNYETIEQKKAYEVAGLLGDIGGQMGLFIGASILTVLELFDYAYEVIKHR", "values": [{"measurement": "binding result", "value": "binds"}]}
